Laboratory results taken from article PMC5707625 (Biochemistry, 2017).

Columns and labels:
BlaC [1] = target: T1, BlaC (Mycobacterium tuberculosis, UniProt P9WKD3); experiment: […] Å crystal structure; type: binding
BlaC [2] = target: T1, BlaC; experiment: biochemical; type: binding
[3] = system: O=C(Cc1cccs1)N[C@@H]1C(=O)N2C(C(=O)O)=C(/C=C/c3ccc([N+](=O)[O-])cc3[N+](=O)[O-])CS[C@H]12; experiment: purified protein; settings: pH 6.0

T1 sequence (P9WKD3 43-307 limits assumed): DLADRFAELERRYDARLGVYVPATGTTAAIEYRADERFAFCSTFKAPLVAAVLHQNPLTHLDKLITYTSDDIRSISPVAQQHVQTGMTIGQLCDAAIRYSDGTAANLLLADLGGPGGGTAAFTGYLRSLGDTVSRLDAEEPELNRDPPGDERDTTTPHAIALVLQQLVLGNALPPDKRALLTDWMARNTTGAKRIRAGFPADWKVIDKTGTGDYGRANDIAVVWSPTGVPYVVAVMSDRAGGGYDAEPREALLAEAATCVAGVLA

CC(=O)O [acetate] was tested, and the “2.1 Å crystal structure” value (BlaC [1]) was “acetate occupies the carboxylate binding site and forms hydrogen bridges with residues Ser-130, Thr-235, and Thr-237”.

For O=P(O)(O)O [phosphate], the Kd (BlaC [2]) was 27 ± 11 mM.

Work on BlaC (Mycobacterium tuberculosis H37Rv) yielded a Km [3] of 38 ± 7 µM, a kcat [3] of 69 ± 1 s⁻¹ and a kcat/Km [3] of 1.8e+06 ± 300000 M⁻¹ s⁻¹.
